Test results reported in US20190010227A1 (WELSON PHARMACEUTICALS, published 2019).

Key:
[1] = molecular target: T1, EGFR on A431 cell surface (human, UniProt P00533 25-1210); experiment: cell-based ELISA on A431 cells, HRP-conjugated goat anti-mouse IgG, TMB, OD450
T1 construct: whole, on cells; also called EGFR expressed on A431 cell surface; EGFR on live A431 cell surface
Experimental: (§1) 3. Cell ELISA assay A431 cells were seeded at 20,000 cells/well of 96-well plate in DMEM-10% FBS and incubated at 37° C. 5% CO₂. 24 hours later, discard the medium. After two washes with PBS and blocking with 5% skim-milk/PBS for 1 h, wells were incubated with different concentration of mLA22 and hLA22 in 5% skim-milk-PBS for another one hour. After two washes with PBS, wells were then incubated with HRP-conjugated goat anti-mouse IgG secondary antibodies or HRP-conjugated goat anti-human IgG secondary antibodies (Jackson Lab) in 5% skim-milk-PBS for 1 h at room temperature. After washes with PBS, HRP substrate 3, 3′, 5, 5′-tetramethylbenzidine (TMB) solution was added. The reaction was stopped with stop solution (0.1M […]) and absorbance was measured at 450 nm with a microplate reader.

ECD of rec. EGFR = molecular target: T2, ECD of rec. EGFR (human, UniProt P00533 25-645); experiment: SPR (BIAcore), chip coated with ECD of rec. EGFR
T2 construct: extracellular domain; also called human epidermal factor receptor (EGFR)
Excerpt: 1. Biacore assay. To test the affinity between human epidermal factor receptor (EGFR) and the present invention of humanized anti-EGFR antibody using BIAcore system which is based on the surface plasmon resonance technique, the chip was coated with ECD of rec. EGFR.

[2] = molecular target: T1, EGFR on A431 cell surface; experiment: cell-based ELISA on A431 cells, HRP-conjugated goat anti-human IgG, TMB, OD450
Experimental: as §1

| Binder | EC50 (read off the curve) [1] [mg/L] | Kd (ECD of rec. EGFR) [µM] | koff (ECD of rec. EGFR) [s⁻¹] | kon (ECD of rec. EGFR) [M⁻¹ s⁻¹] | EC50 (read off the curve) [2] [mg/L] |
| --- | --- | --- | --- | --- | --- |
| Humanized LA22 (H1 + h2) (antibody, human IgG1, V domains shown, Human IgG1 / kappa constant regions; also called H1-LA22 / h2-LA22) VH: EVQLVESGGGLVQPGGSLRLSCESNEYEFPSHDMSWVRQAPGKGLEWVSAITSDGISTYYPDTMERRFTISRDNSKNTLYLQMNSLRAEDTAVYYCARHDWDEGFASWGQGTLVTVSS VL: DVVMTQSPLSLPVTLGQPASISCRSSQSLVHSNGNTYLHWYQQRPGQSPRLLIYKVSNRFSGVPDRFSGSGSGTDFTLKISRVEAEDVGIYFCSQSSHVPPAFGGGTKLEIK |  | 0.014 | 0.000146 | 10400 |  |
| Humanized LA22 (H0 + h2) (antibody, human IgG1, V domains shown, Human IgG1 / kappa constant regions; also called HO-LA22 / h2-LA22) VH: EVQLVESGGGLVQPGGSLRLSCAASEYEFPSHDMSWVRQAPGKGLEWVSAITSDGISTYYPDTMERRFTISRDNSKNTLYLQMNSLRAEDTAVYYCARHDWDEGFASWGQGTLVTVSS VL: DVVMTQSPLSLPVTLGQPASISCRSSQSLVHSNGNTYLHWYQQRPGQSPRLLIYKVSNRFSGVPDRFSGSGSGTDFTLKISRVEAEDVGIYFCSQSSHVPPAFGGGTKLEIK |  | 0.0132 | 6.9e-05 | 5200 |  |
| Humanized LA22 (H4 + h2) (antibody, human IgG1, V domains shown, Human IgG1 / kappa constant regions; also called H4-LA22 / h2-LA22) VH: EVQLVESGGGLVQPGGSLRLSCASNEYEFPSHDMSWVRQTPGKRLEWVSAITSDGISTYYPDTMERRFTISRDNSKNTLYLQMSSLRAEDTAVYYCARHDWDEGFASWGQGTLVTVSS VL: DVVMTQSPLSLPVTLGQPASISCRSSQSLVHSNGNTYLHWYQQRPGQSPRLLIYKVSNRFSGVPDRFSGSGSGTDFTLKISRVEAEDVGIYFCSQSSHVPPAFGGGTKLEIK |  | 0.0154 | 0.000188 | 12200 |  |

These reach a lower Kd (ECD of rec. EGFR). Values come first.

| EC50 (read off the curve) [1] [mg/L] | Kd (ECD of rec. EGFR) [µM] | koff (ECD of rec. EGFR) [s⁻¹] | kon (ECD of rec. EGFR) [M⁻¹ s⁻¹] | EC50 (read off the curve) [2] [mg/L] | Binder |
| --- | --- | --- | --- | --- | --- |
| ~1 | 0.002 | 4.3e-05 | 22000 |  | Mouse monoclonal antibody LA22 (antibody, V domains shown, Mouse hybridoma antibody (ATCC deposit, US 5,459,061); the mouse constant regions are not; also called mLA22; mouse LA22) VH: EVQLVESGGGLVQPGESLKLSCESNEYEFPSHDMSWVRKTPEERLELVAAITSDGISTYYPDTMERRFLISRDNTKKTLYLQMSSLRSEDTALYYCSRHDWDEGFASWGQGTLVTVSA VL: DVVMTQTPLSLPVSLGDQASISCRSSQSLVHSNGNTYLHWYLQKPGQSPKLLIYKVSNRFSGVPDRFSGSGSGTDFTLKISRVEAEDLGIYFCSQSSHVPPAFGGGTKLEIK |
|  | 0.012 | 7.7e-05 | 6400 |  | Humanized LA22 (H2 + h2) (antibody, human IgG1, V domains shown, Human IgG1 / kappa constant regions; also called H2-LA22 / h2-LA22) VH: EVQLVESGGGLVQPGGSLRLSCESNEYEFPSHDMSWVRQAPGKGLEWVSAITSDGISTYYPDTMERRFTISRDNTKKTLYLQMNSLRAEDTAVYYCARHDWDEGFASWGQGTLVTVSS VL: DVVMTQSPLSLPVTLGQPASISCRSSQSLVHSNGNTYLHWYQQRPGQSPRLLIYKVSNRFSGVPDRFSGSGSGTDFTLKISRVEAEDVGIYFCSQSSHVPPAFGGGTKLEIK |
|  | 0.0023 | 3.8e-05 | 16400 | ~1 | Humanized LA22 (H3 + h2) (antibody, V domains shown, also called hLA22; hLA22 h2H3) VH: EVQLVESGGGLVQPGGSLRLSCASNEYEFPSHDMSWVRQTPGKGLEWVSAITSDGISTYYPDTMERRFTISRDNSKNTLYLQMSSLRAEDTAVYYCARHDWDEGFASWGQGTLVTVSS VL: DVVMTQSPLSLPVTLGQPASISCRSSQSLVHSNGNTYLHWYQQRPGQSPRLLIYKVSNRFSGVPDRFSGSGSGTDFTLKISRVEAEDVGIYFCSQSSHVPPAFGGGTKLEIK |
